Assay results taken from patent US20190381169A1, “PHARMACEUTICAL COMBINATIONS FOR IMMUNOTHERAPY” (Technische Universitat Dresden, priority 2014, published 2019).
Entries after “also recorded” stand apart in the source; their conditions may differ.

Assays:
Format in all cases: cell-based
p75^NTR [1] = molecular target: T1, p75^NTR (Mus musculus, UniProt Q9Z0W1); assay: Cytokine secretion and TLR9 expression of CpG stimulated murine PDCs
T1 construct: endogenous in cells; host or cells: murine plasmacytoid dendritic cells differentiated in vitro from bone marrow with Flt3-L (p75NTR+/+ wildtype; p75NTR-/- as control)
T1 sequence (Q9Z0W1 32-427): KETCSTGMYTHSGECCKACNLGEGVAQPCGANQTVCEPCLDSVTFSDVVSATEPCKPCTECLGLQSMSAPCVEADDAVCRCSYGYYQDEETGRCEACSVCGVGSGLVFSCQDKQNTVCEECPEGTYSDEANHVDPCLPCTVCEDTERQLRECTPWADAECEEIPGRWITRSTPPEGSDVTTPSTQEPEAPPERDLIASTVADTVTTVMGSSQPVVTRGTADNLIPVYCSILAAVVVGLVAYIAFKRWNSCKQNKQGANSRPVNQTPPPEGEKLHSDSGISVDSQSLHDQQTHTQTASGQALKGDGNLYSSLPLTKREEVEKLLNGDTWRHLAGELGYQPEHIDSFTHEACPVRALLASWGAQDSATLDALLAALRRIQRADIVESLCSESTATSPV
Procedure: Murine PDC were generated in vitro as follows: Bone marrow cells were isolated by flushing femur and tibia of mice. Erythrocytes were lysed using ACK buffer. Remaining cells were washed and cultured at a density of 2×10^6 cells per ml in RPMI 1640 medium supplemented with 10% FCS, 1 mM sodium pyruvat, 2 mM L-glutamine, 100 IU per ml penicillin, 100 μg/ml streptomycin, 10 mM HEPES buffer and 0.1 mM β-mercaptoethanol. To differentiate bone marrow cells into PDCs, 100 ng/ml Flt3-L (fms-like tyrosine kinase 3-ligand) was added to the cells. After 8 days of culture PDCs were enriched by removing the CD11b^+ fraction using CD11b Microbeads (Miltenyi Biotec) according to manufacturer instructions. Dead cells were excluded using Dead cell removal Kit (Miltenyi Biotec). Purity of PDCs was evaluated by flow cytometry (CD11b^−CD11c^+B220^+Siglec-H^+).
Murine PDC express the low affinity neurotrophin receptor p75^NTR but not the high affinity neurotrophin receptors (FIGS. 3A, 3B). […] Furthermore, only p75^NTR expressing PDC (p75^NTR+/+) increased the CPG-ODNs Class B induced secretion of the Th2 response inducing cytokines IL-6 and TNFα in the presence of NGF (FIG. 3D).

p75^NTR [2] = molecular target: T1, p75^NTR; assay: Proliferation and cytokine secretion of OT-II CD4+ or OT-I CD8+ T-cells co-cultured with murine PDCs
Description: Murine T-cells were isolated either from OT-II mouse strain expressing ovalbumin peptide specific T-cell receptors on CD4+ T-cells or from OT-I mouse strain expressing ovalbumin peptide specific T-cell receptors on CD8+CTLs using the CD8+ T-cell isolation kit (Miltenyi Biotec).

p75^NTR [3] = molecular target: T1, p75^NTR; assay: Th1 cytokine secretion in co-culture of murine PDCs and OTII T-cells with ovalbumin peptide (CBA); settings: OTII T-cells with p75^NTR+/+ PDCs and ovalbumin peptide 323-339, NGF 100 ng/ml, compared to p75^NTR−/− PDCs
Procedure: Murine T-cells were isolated from the OTII mouse strain expressing mouse alpha-chain and beta-chain T-cell receptor specific for chicken ovalbumin 323-339, using the CD+ T-cell isolation kit (Miltenyi Biotec).
Both, murine PDCs and T-cells were cultured overnight with or without the chicken ovalbumin peptide 323-339 in the presence or absence of NGF (100 ng/ml). The concentrations of T-cell secreted Th1-cytokines IL-2 and IFNγ in the supernatant were determined by using the CBA kit (BD Bioscience) following manufacturer's instruction with modification in data analysis using Microsoft Excel. […] In the presence of p75^NTR+/+ PDCs presenting the ovalbumin peptide (OVA) to the T-cells, T-cells secrete the Th1 cytokines IFNγ (FIG. 5A) and IL-2 (FIG. 5B).

[4] = co-culture with PDCs, NGF present
[5] = co-culture with p75^NTR+/+ PDCs, NGF added, compared to p75^NTR−/− PDCs

NGF: Nerve growth factor, best characterized neurotrophin; natural p75^NTR agonist (R&D Systems)
IFNα secretion (p75^NTR [1]; CPG-ODNs Class A (CpG A) stimulated p75^NTR+/+ PDCs, increasing NGF levels): decreasing levels; also recorded: reduced | expression of TLR9 (p75^NTR [1]; CpG A stimulated p75^NTR+/+ PDCs, NGF added): reduced expression; also recorded: negatively influenced | CPG-ODNs Class B induced secretion of IL-6 and TNFα (p75^NTR [1]; p75^NTR+/+ PDC in presence of NGF): increased | CpG-induced increase in TLR9 expression level (p75^NTR [1]; p75^NTR+/+ PDCs, CpG A or CpG B, presence of NGF): significantly decreased | TLR9 expression of p75^NTR−/− PDCs (p75^NTR [1]; p75^NTR−/− PDCs, CpG A or CpG B stimulation, NGF added): does not display a NGF induced alteration of TLR9 expression; also recorded: showed now difference in TLR9 expression | cytokine secretion of CD8+ T-cells (CTLs) from OT-I strain (p75^NTR [2]; [4]): secreted less cytokines | proliferation of CD8+ T-cells (CTLs) from OT-I strain (p75^NTR [2]; [4]): reduced proliferation | cytokine secretion of CD4+ T-cells from OT-II strain (p75^NTR [2]; [5]): increased | proliferation of CD4+ T-cells from OT-II strain (p75^NTR [2]; [5]): increased | secretion of Th1 cytokines IFNγ and IL-2 (p75^NTR [3]): reduced secretion
